Data: patent publication US20230257435A1, “Wound Healing Composition and Uses Thereof” (AGENCY FOR SCIENCE, TECHNOLOGY AND RESEARCH, priority 2020, published 2023)

What was measured:
[1] = test system: mouse skin punch wounds; test: Punch-biopsy wound healing model, splinted; type: in vivo
Method: (§1) Six to eight to week old female experimental ICR (nomenclature: IcrTac:ICR) mice purchased from InVivos were used for punch-biopsy wound healing in vivo assays. In the ex-vivo mouse skin explant assay, random ratios of male and female new born ICR mouse pups were used. Wherever possible, the experiments were performed taking into consideration an ethical and reductionist approach of animal usage. Animal studies were not performed in a blinded fashion. The animals were randomly assigned to different experimental groups. The number of animals used for each experiment is indicated in the legend as n=x mice per group. All animal experiments performed were done in accordance with experimental protocols reviewed by the Biological Resource Center (BRC), Agency for Science Technology and Research (A*STAR) under strict compliance to the Institutional Animal Care and Use Committee (IACUC) guidelines for ethical use of animal models in biological research.
(§2) The mice were housed under standard conditions of 21° C. and a 12 h light-dark cycle with free access to food. Subsequently, the mice were intraperitoneally (i.p.) anesthezised using Ketamine 100 mg/kg and Xylazin 10 mg/kg diluted in […] of saline solution. The fur was shaved from the base of the neck towards the back on the entire shoulder region. The skin was wiped with an alcohol swab and 10% povidone-iodine (Betadine) antiseptic solution. Circular symmetrical 4 mm wounds were inflicted on either side of the midline in the shoulder region using a sterile 4 mm punch biopsy needle (Integra Miltex, Integra York, P.A., Inc.). The wound skin was carefully removed using a scalpel and a pair of scissors to generate a full-thickness wound that were left open for topical administrations during the analysed time periods. For splinted wound healing models, a 10 mm transparent donut shaped nylon sheet (Grace Bio-Laboratories, Bend, Oreg.) was placed around the 4 mm wound. The splint was placed with the wound at the center, glued to the skin by adhesive (Krazy Glue®; Elmer's Inc.), and covered by Tegaderm dressing. The wounds were treated with different formulations based on either petroleum jelly (Vaseline), a thermoresponsive hydrogel (Pluronic F127-Sigma) or a commercially available skin ointment (Aquaphore-Beiersdorf, Inc.). For Vaseline based ointment cream preparation, 10 mg per cm^2 vaseline ointment was mixed with filtered PBS solutions containing the indicated amounts of Agrin (100 μg, 200 μg or 500 μg) and 100 μg BSA (w/w) were used and applied topically every two days. For siRNA mediated knockdown experiments, 75 nM of indicated siRNAs were incubated with lipofectamine in PBS. Subsequently, a 1:1 mixture of PBS (containing the siRNAs): Aquaphore was applied topically on the wound region every two days. A topical formulation comprising of 20% (w/w) Pluronic F127 (Sigma) was used to dissolve in sterile and 0.22μ filtered solution containing a final concentration of 200 μg/ml sAgrin or BSA. This mixture was dissolved overnight at 4° C. to ensure that liquid phase is achieved. The mixture forms a homogenous gel at temperatures above ˜20° C. and was dispersed topically to cover the wound. Wound closure was assessed using a Vernier caliper every alternate day. For both models, the animals were caged individually throughout the observed time-points of healing at the institutional animal facility. All wound healing animal experiments performed were done in accordance with experimental protocols reviewed by the Biological Resource Center (BRC), Agency for Science Technology and Research (A*STAR) under strict compliance to the Institutional Animal Care and Use Committee (IACUC) guidelines for ethical use of animal models in biological research.
(§3) Human skin equivalents and mice skin tissues were harvested, embedded, and subjected to routine histology using Hematoxylin and Eosin. For immunostaining, the tissues were fixed for 24 h in 10% neutral buffered formalin solution. […]

[2] = test system: pMLC; test: Force transmission via ligand conjugated magnetic beads; type: cell-based, human
Method: The ligands were conjugated to 4.5 μm epoxide paramagnetic beads (Dynabeads M-450 Epoxy, Thermo Fisher Scientific) according to the manufacturer's manual. Briefly, the beads were washed twice in 0.1 M sodium phosphate buffer, pH 7.4. Subsequently. 8×10^7 beads were conjugated to 20 μg sAgrin, BSA and FN per in 0.1 M sodium phosphate buffer at pH 7.4 for 16-18 h at 4° C. with gentle rotation throughout. The degree of protein conjugation to the beads was verified by a reducing SDS-PAGE gel analysis using a subset of ligand conjugated beads. The remaining beads were washed and subsequently stored in 0.1% BSA-phosphate buffered saline (PBS) pH 7.4 at 4° C. They were subsequently suspended in medium and added on the cells for 30 min at 37° C. After a brief wash with PBS to remove excess non-adherent beads, the cells were placed under a permanent neodymium magnet (J Magnetics, USA) at a distance of 6 mm apart for another 30 min that allowed a vertical tensile force in the magnitudes of ˜200 pN on the beads. The cells were then fixed in 4% paraformaldehyde, permeabilized and processed for immunofluorescence.

[3] = test system: mouse skin punch wounds; test: Punch-biopsy wound healing model, non-splinted; type: in vivo
Method: as §1, §2, §3

B1: sAgrin: C-terminus recombinant Agrin fragment containing 8 amino acid 'Z8' insert and LG3 domain (SEQ ID NO: 7), His-tagged, expressed in E. coli (protein)
chain: DTLAFDGRTFVEYLNAVTESELANEIPVEKALQSNHFELSLRTEATQGLVLWSGKATERADYVALAIVDGHLQLSYNLGSQPVVLRSTVPVNTNRWLRVVAHREQREGSLQVGNEAPVTGSSPLGATQLDTDGALWLGGLPELPVGPALPKAYGTGFVGCLRDVVVGRHPLHLLEDAVTKPELRPCPTP
modifications: His tag
- wound healing, Pluronic F127 ([1]; 200 ug sAgrin vs collagen or BSA, 12 days): significantly accelerated wound healing when compared to similar concentrations of collagen or BSA
- pMLC expression in wound edges and beds under MMP12 depletion ([1]; MMP12 siRNA, 200 μg sAgrin): significantly attenuated in MMP12 depleted skin sections
- sAgrin accelerated healing rates and re-epithelialization under MMP12 depletion ([1]; MMP12 siRNA, 200 μg sAgrin, within 10 days): dramatically reduced upon MMP12 depletion
- CD-31 expressing blood vessels under MMP12 suppression ([1]; day 10): failed to induce robust CD-31 expressing blood vessels
- sAgrin induced mature and mixed collagen fiber deposition under MMP12 depletion ([1]; day 10): significantly diminished upon MMP12 depletion
- deposition of collagen fibers in wound beds ([1]; day 10, vs BSA and Collagen): higher deposition of mature and mixed collagen fibers
- histology of wound area ([1]; day 10 post-wounding, vs BSA or Collagen): predominantly represented healed skin with the emergence of regenerated hair follicles
- number of blood vessels and their diameters ([1]; day 12 post-injury, vs BSA or Collagen): increased number of blood vessels and their diameters
- pMLC recruitment with increasing sAgrin coated beads ([2]; 30 min post-wound scratch): greater pMLC recruitment at 30 min post-wound scratch in a dose-dependent fashion
- pMLC intensity in MMP12 depleted cells after force transmission ([2]; 30 min post-wounding): unable to rescue the reduced pMLC intensity
- pMLC recruitment near beads in control cells with exogenous force ([2]; 30 min post-wounding): further surged pMLC recruitment
- pMLC recruitment upon force in Agrin depleted cells (confocal) ([2]; 30 min post-wounding, compared to FN or BSA beads): enhanced pMLC recruitment upon force application
- MMP12 recruitment in pMLC activated regions ([2]; Agrin depleted cells, force transmission): effectively enhanced MMP12 recruitment in pMLC activated regions
- increase of pMLC around the bead vicinity ([2]; Agrin depleted cells, force with sAgrin beads 30 min): ~2 folds
- activated integrin β1-Agrin localization ([2]; control migrating keratinocytes, ligand beads, force): substantially increased activated integrin β1-Agrin localization
- rescue of reduced pMLC in Agrin depleted cells by force through ligand beads ([2]; siAgrin cells): only restored by force transduced by sAgrin
- migratory epithelial tongue from wound edges ([3]; day 2): significant extension of the migratory epithelial tongue
- K17 outgrowth, MMP12 expression and pMLC activation ([3]; day 2, wound edges and beds): robust K17 expressing keratinocyte outgrowth, MMP12 expression and pMLC activation
- angiogenesis (blood vessel number and diameter) ([3]; day 6): steady enhancement in angiogenesis with an increased number of blood vessels and their respective diameters
- Ki67+ve proliferating cells ([3]; day 7 post-injury): enhancement of Ki67+ve proliferating cells
- rates of wound healing, Pluronic F-127 hydrogel ([3]; sAgrin 200 μg vs control hydrogel): significantly boosted the rates of wound healing in vivo
- healing rates of punch wounds, Vaseline ointment ([3]; sAgrin 100, 200 or 500 μg in Vaseline vs BSA): significantly accelerated the healing rates of mice punch wounds in a dose-dependent fashion
